# Data from patent US20140286963A1 (Genentech, published 2014).
# Positions count from the first letter of the chain named.
# B1: Fab LC 4 (Fab, V domains shown)
# VH: EVQLVESGGGLVQPGGSLRLSCAASGFNLSYSYIHWVRQAPGKGLEWVASIYSSYGSTYYADSVKGRFTISADTSKNTAYLQMNSLRAEDTAVYYCARSYHHSDKYYYAWSYALDYWGQGTLVTVSS
# VL: DIQMTQSPSSLSASVGDRVTITCRASQSVSSAVAWYQQKPGKAPKLLIYSASSLYSGVPSRFSGSGSGTDFTLTISSLQPEDFATYYCQQYSYSLLTFGQGTKVEIK
# B2: Fab LC 6 (Fab, V domains shown)
# VH: EVQLVESGGGLVQPGGSLRLSCAASGFNFYYSSIHWVRQAPGKGLEWVASISPYSGYTSYADSVKGRFTISADTSKNTAYLQMNSLRAEDTAVYYCARQPTHYYYYAKGYKAMDYWGQGTLVTVSS
# VL: B1 VL with Y49S, S50W, S53W, L95P, L96F
# B3: Fab 12 (Fab, V domains shown)
# VH: B2 VH
# VL: B1 VL with L95P, L96F
# B4: YW412.8.31 anti-BACE1 human IgG (antibody, V domains shown)
# VH: EVQLVESGGGLVQPGGSLRLSCAASGFTFLGYGIHWVRQAPGKGLEWVGWISPAGGSTDYADSVKGRFTISADTSKNTAYLQMNSLRAEDTAVYYCARGPFSPWVMDYWGQGTLVTVSS
# VL: B1 VL with S28D, S31T, S53F, Y91F, S92P, Y93T, S94Y, L96P
# notes: also called YW412.8.31 antibody
# B5: Fab LC 9 (Fab, V domains shown)
# VH: B2 VH
# VL: B1 VL with Y49W, S50Y, S53W, L95P, L96F
# B6: Fab LC10 (Fab, V domains shown)
# VH: B2 VH
# VL: B1 VL with Y49W, S50W, L95P, L96F
# B7: Fab LC 40 (Fab, V domains shown)
# VH: EVQLVESGGGLVQPGGSLRLSCAASGFNVSSSSMHWVRQAPGKGLEWVASIYPYSSSTSYADSVKGRFTISADTSKNTAYLQMNSLRAEDTAVYYCARYSYYSYGIDYWGQGTLVTVSS
# VL: DIQMTQSPSSLSASVGDRVTITCRASQYSYSYSVAWYQQKPGKAPKLLISYASYLYSGVPSRFSGSGSGTDFTLTISSLQPEDFATYYCQQYSYSYSPITFGQGTKVEIK
# How the values were obtained:
# [1] = biological target: T1, human BACE1 extracellular domain, amino acids 1-457 of SEQ ID NO:49 (human, UniProt P56817 22-457, biotinylated in the phage sorting, phage ELISAs and the competition ELISA (sites not given)); assay: phage competition ELISA: Fab-displaying phage on plate-immobilized BACE1, serial dilutions of BACE1 in solution
# T1 construct: also called human BACE1 ECD; hBACE1
# T1 sequence (P56817 22-457): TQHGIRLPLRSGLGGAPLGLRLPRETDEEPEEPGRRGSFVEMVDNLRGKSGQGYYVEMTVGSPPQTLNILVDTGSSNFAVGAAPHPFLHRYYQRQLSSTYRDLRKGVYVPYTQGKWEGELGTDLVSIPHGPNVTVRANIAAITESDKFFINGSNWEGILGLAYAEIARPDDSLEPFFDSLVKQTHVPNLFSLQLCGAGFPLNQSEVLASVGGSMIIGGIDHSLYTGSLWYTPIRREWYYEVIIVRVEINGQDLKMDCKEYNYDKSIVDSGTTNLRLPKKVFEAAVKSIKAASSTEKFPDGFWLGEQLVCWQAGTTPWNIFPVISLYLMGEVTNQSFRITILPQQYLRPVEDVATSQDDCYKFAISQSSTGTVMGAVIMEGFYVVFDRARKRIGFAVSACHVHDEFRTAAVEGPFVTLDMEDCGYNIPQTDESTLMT
# Method: (§1) Single colonies (in XL1 blue cells) of the selected clones were picked up and grown in 1 ml 2YT broth supplemented with 50 μg/ml carbenicillin, 10 μg/ml tetracycline and M13KO7 at 37° C. for 2 h. Kanamycin (25 μg/ml) was added to the culture, which continued to grow for 6 h. The culture was transferred to 30 ml 2YT broth supplemented with 50 μg/ml carbenicillin and 25 μg/mlkanamycin and grown at 37° C. overnight. Phage were harvested and purified as previously described (Sidhu, S. S. et al. Methods Enzymol. 328: 333-363 (2000)). The purified Fab-displaying phage were serially diluted in PBT buffer and tested for binding to BACE1 immobilized on a plate. A fixed phage concentration that gives 80% of saturation signals was selected for the subsequent competition ELISA. The competition was conducted by incubating the fixed, sub-saturating Fab-displaying phage with serial dilutions of BACE1 for 1 h and then transferred to the BACE1-immobulized plate for 15 min to capture unbound phage. The plate was then washed for 8 times and bound phage were detected by anti-M13-HRP.
# (§2) To estimate the affinity of these 6 clones, phage competition ELISAs were performed, as described above, and IC₅₀ values were determined (FIG. 7). The IC₅₀ values were determined by fitting the data to a four-parameter logistic equation developed by Marquardt (Marquardt, D. W. SIAM J. Appl. Math. 11: 431-441 (1963)) using Kaleidagraph (Synergy Software) and are shown below in Table 2.
# [2] = biological target: T1, human BACE1 extracellular domain, amino …; assay: one-point competition phage ELISA, plate-immobilized BACE1, 20 nM BACE1 in solution
# Method: (§3) Screening of the libraries for affinity maturation of initially obtained antibodies was carried out similarly as described above. […] For rounds 2 and 3, 20 nM and 5 nM biotinylated BACE1 was incubated with amplified phage, respectively. Clones (96) from each of the two libraries were screened in a one-point competition ELISA, where 20 nM of BACE1 was used in solution to compete the phage particle from binding to plate-immobilized BACE1 as described below.
# (§4) A plate immobilized with BACE1 was prepared by capturing 2 μg/ml biotinylated BACE1 for 15 min using a 384-well Maxisorp Immunoplate that was previously coated with 2 μg/ml of Neutravidin at 4° C. for overnight and blocked with Blocking Buffer. The culture supernatants from individual clones grown in a 96-well format were diluted 20-fold in PBT buffer and was incubated with or without 20 nM BACE1 at room temperature for 1 h. The mixture was transferred to the plate with immobilized BACE1 and incubated for 15 min. The plate was washed six times by PT buffer and the bound phage was detected by anti-M13-HRP as described above. The ratio between the ELISA signal from the well in the absence and the presence of BACE1 in solution indicates the affinity of the clone, where higher ratios indicate the higher affinities.
# [3] = biological target: T1, human BACE1 extracellular domain, amino …; assay: phage competition ELISA IC50, against parent Fab5
# Method: as §1, with “The competition was conducted by incubating the fixed, sub-saturating Fab-displaying phage with serial dilutions of BACE1 for 1 h and then transferred to the BACE1-immobulized plate for 15 min to capture unbound phage.” left out
# as §2
# [4] = biological target: T1, human BACE1 extracellular domain, amino …; assay: cell-based or functional assay
# [5] = biological target: T1, human BACE1 extracellular domain, amino …; assay: one-point phage competition ELISA: ratio of the ELISA signal of Fab-displaying phage on plate-immobilized BACE1 without / with 20 nM BACE1 in solution
# Method: as §3, §4
# [6] = biological target: T1, human BACE1 extracellular domain, amino …; assay: cell-based or functional assay; remark: listed apart in the source
# [7] = biological target: T1, human BACE1 extracellular domain, amino …; assay: phage competition ELISA: Fab-displaying phage incubated with serial dilutions of BACE1 in solution, unbound phage captured on plate-immobilized BACE1, anti-M13-HRP, OD450
# Method: as §1, with “The competition was conducted by incubating the fixed, sub-saturating Fab-displaying phage with serial dilutions of BACE1 for 1 h and then transferred to the BACE1-immobulized plate for 15 min to capture unbound phage.” left out
# as §2
# [8] = biological target: T1, human BACE1 extracellular domain, amino …; assay: phage competition ELISA IC50; parent, reference for LC9, LC10 and LC6
# [9] = biological target: T2, human BACE2 extracellular domain (human, UniProt Q9Y5Z0 21-473); assay: SPR
# T2 construct: extracellular domain; The extracellular domain is stated for the MCE enzyme assay; also called human recombinant BACE2 extracellular domain
# T2 sequence (looked up): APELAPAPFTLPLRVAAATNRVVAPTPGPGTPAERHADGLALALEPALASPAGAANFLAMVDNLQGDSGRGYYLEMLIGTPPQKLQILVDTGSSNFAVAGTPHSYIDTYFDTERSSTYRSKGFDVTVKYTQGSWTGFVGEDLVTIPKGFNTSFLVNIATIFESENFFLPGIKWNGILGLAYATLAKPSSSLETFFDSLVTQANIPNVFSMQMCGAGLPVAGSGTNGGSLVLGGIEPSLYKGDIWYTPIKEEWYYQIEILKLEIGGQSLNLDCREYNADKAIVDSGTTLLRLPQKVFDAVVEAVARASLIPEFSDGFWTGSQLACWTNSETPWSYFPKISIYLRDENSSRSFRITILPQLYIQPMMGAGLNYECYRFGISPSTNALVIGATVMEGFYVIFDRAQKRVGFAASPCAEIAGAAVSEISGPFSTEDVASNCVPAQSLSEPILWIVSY
# [10] = biological target: BACE1 of primary mouse neurons (mouse, UniProt P56818 46-501); assay: cell-based or functional assay
# Chain of BACE1 of primary mouse neurons (P56818 46-501): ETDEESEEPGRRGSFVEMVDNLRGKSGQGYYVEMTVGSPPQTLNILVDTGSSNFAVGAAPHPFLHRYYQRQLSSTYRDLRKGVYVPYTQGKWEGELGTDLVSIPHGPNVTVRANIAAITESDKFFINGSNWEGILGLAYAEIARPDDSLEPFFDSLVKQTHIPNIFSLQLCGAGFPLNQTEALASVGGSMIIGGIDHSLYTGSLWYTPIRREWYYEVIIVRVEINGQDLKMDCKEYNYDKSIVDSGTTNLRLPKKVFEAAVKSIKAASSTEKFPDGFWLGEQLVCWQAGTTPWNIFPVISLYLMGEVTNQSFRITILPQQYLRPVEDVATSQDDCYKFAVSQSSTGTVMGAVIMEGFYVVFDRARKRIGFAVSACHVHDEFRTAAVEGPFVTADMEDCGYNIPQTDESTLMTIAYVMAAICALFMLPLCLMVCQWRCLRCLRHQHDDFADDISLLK
# [11] = biological target: BACE1 of 293-HEK cells stably expressing wild-type human APP (UniProt P56817 46-501); assay: cell-based or functional assay
# Chain of BACE1 of 293-HEK cells stably expressing wild-type human APP (P56817 46-501): as the sequence (P56818 46-501) above, with S6P, I162V, I165L, T180S, A182V, V340I, A393L, H443Q counted along it
# [12] = biological target: T1, human BACE1 extracellular domain, amino …; assay: SPR (BIAcore-3000), second unlabelled row under Human, IgG captured by anti-human Fc antibody, pH 7.0
# Method: (§5) Association rates (kₒₙ) and dissociation rates (koff) were calculated using a simple one-to-one Langmuir binding model (BIAcore™ Evaluation Software version 3.2). The equilibrium dissociation constant (KD) was calculated as the ratio koff/kₒₙ.
# [13] = biological target: T1, human BACE1 extracellular domain, amino …; assay: SPR (BIAcore-3000), IgG captured by anti-human Fc antibody, BACE1 ECD injected, 25 C, pH 7.0
# Method: as §5
# Guinea pig BACE1 = biological target: T3, Guinea pig BACE1 (Guinea pig); assay: SPR (BIAcore-3000), IgG captured by anti-human Fc antibody, pH 7.0
# T3 construct: The method text names only the human and murine ECD; The guinea pig construct is not described
# [14] = biological target: T1, human BACE1 extracellular domain, amino …; assay: phage competition ELISA IC50, against parent Fab14
binder,measurement,setting,value
B1,IC50,[1],0.46 nM
same,ratio of ELISA signal in the absence to the presence of BACE1 in solution,[2],> 4 ratio
same,Fold affinity improvement,[3],45 fold
same,"IC50 (nM), HTRF enzyme activity assay",[4],480 nM
same,Competition ELISA Ratio,[5],6.3
B2,"improvement in inhibition activity against parent Fab 12, HTRF enzyme activity assay",[6],~20 fold
same,IC50 (read off the curve),[7],~0.3 nM
same,"IC50 (nM), HTRF enzyme activity assay",[4],160 nM
B3,IC50,[1],45.3 nM
same,Fold affinity improvement,[8],1 fold
B4,binding result,[9],no binding
same,"IC50, Aβ40 production in DRG neurons",[10],8.4 nM
same,"IC50, Aβ40 production in cortical and hippocampal neurons",[10],2.3 to 2.6 nM
same,"IC50, HTRF long peptide assay",[6],1.7 nM
same,"IC50, microfluidic capillary electrophoresis assay",[6],0.08 nM
same,"IC50, short FRET peptide assay",[6],17 nM
same,"IC50, Aβ1-40 production in APP-expressing 293 cells",[11],17 nM
same,Kd,[12],1.32 nM
same,koff,[12],0.000139 s⁻¹
same,kon,[12],105000 M⁻¹ s⁻¹
same,Kd,[13],2.9 nM
same,koff,[13],0.00031 s⁻¹
same,kon,[13],110000 M⁻¹ s⁻¹
same,Kd,Guinea pig BACE1,2.6 nM
same,koff,Guinea pig BACE1,0.00027 s⁻¹
same,kon,Guinea pig BACE1,100000 M⁻¹ s⁻¹
B5,"improvement in inhibition activity against parent Fab 12, HTRF enzyme activity assay",[6],~20 fold
same,"IC50 (nM), HTRF enzyme activity assay",[4],140 nM
B6,"improvement in inhibition activity against parent Fab 12, HTRF enzyme activity assay",[6],~20 fold
B7,Fold affinity improvement,[14],3 fold
same,IC50,[1],4.7 nM
same,ratio of ELISA signal in the absence to the presence of BACE1 in solution,[2],> 3 ratio
same,Competition ELISA Ratio,[5],3
